Data taken from the supplement of paper PMC7877785.
± gives the uncertainty stated by the source.

Assay: self-splicing fitness, log relative to wild type (ln ratio); higher = more splicing; Tetrahymena group I intron in knt gene, E. coli kanamycin selection, DiMSum; sequences stand for … in CUCUCU…GGAGGGAAAAGUUAUCAGGCAUGCACCUGGUAGCUAGUCUUUAAACCAAUAGAUUGCAUCGGUUUAAAAGGCAAGACCGUCAAAUUGCGGGAAAGGGGUCAACAGCCGUUCAGUACCAAGUCUCAGGGGAAACUUUGAGAUGGCCUUGCAAAGGGUAUGGUAAUAAGCUGACGGACAUGGUCCUAACCACGCAGCCAAGUCCUAAGUCAACAGAUCUUCUGUUGAUAUGGAUGCAGUUCACAGACUAAAUGUCGGUCGGGGAAGAUGUAUUCUUCUCAUAAGAUAUAGUCGGACCUCUCCUUAAUGGGAGCUAGCGGAUGAAGUGAUGCAACACUGGAGCCGCUGGGAACUAAUUUGUAUGCGAAAGUAUAUUGAUUAGUUUUGGAGUACUCGUGGUCG
Procedure, shortened: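 Library with all eight P1ex-region intron nucleotides randomised, intron inside the knt kanamycin-resistance gene on pET-22b(+), in E. coli BL21(DE3). Cells grew overnight at 37°C or 30°C on LB agar with or without 25 μg/mL kanamycin (plus 100 μg/mL carbenicillin, 50 μM IPTG, 0.2% rhamnose), in six replicate transformations. Pooled colonies were amplicon-sequenced on Illumina HiSeq 2500. DiMSum fitness is the error-weighted combination of wild-type-normalised replicate fold changes, kanamycin versus none.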

## ACAGAGCAAUAUUACGUAGG
30 °C
  self-splicing fitness (ln): -3.59 ± 0.14
37 °C
  self-splicing fitness (ln): -1.61 ± 0.13

## UCACAGCAAUAUUACGCUUG
30 °C
  self-splicing fitness (ln): -2.14 ± 0.12
37 °C
  self-splicing fitness (ln): 0.263 ± 0.1

## AGUUAGCAAUAUUACGCACC
30 °C
  self-splicing fitness (ln): -1.35 ± 0.15
37 °C
  self-splicing fitness (ln): -0.000166 ± 0.19

## AGCGAGCAAUAUUACGUUGC
37 °C
  self-splicing fitness (ln): -3.69 ± 0.42

## ACCCAGCAAUAUUACGCGCG
30 °C
  self-splicing fitness (ln): -1.66 ± 0.077
37 °C
  self-splicing fitness (ln): -0.872 ± 0.097

## CAUAAGCAAUAUUACGGGUU
30 °C
  self-splicing fitness (ln): -3.37 ± 0.21
37 °C
  self-splicing fitness (ln): -3.73 ± 0.24

## UCGAAGCAAUAUUACGACAG
30 °C
  self-splicing fitness (ln): -3.08 ± 0.23
37 °C
  self-splicing fitness (ln): -1.87 ± 0.31

## AGUGAGCAAUAUUACGCACA
30 °C
  self-splicing fitness (ln): -1.35 ± 0.1
37 °C
  self-splicing fitness (ln): -0.91 ± 0.13

## CAUUAGCAAUAUUACGGUAG
30 °C
  self-splicing fitness (ln): -0.468 ± 0.062
37 °C
  self-splicing fitness (ln): -0.027 ± 0.072

## AGCCAGCAAUAUUACGGCCU
30 °C
  self-splicing fitness (ln): -2.07 ± 0.14
37 °C
  self-splicing fitness (ln): -0.992 ± 0.15

## AUCGAGCAAUAUUACGUCAG
30 °C
  self-splicing fitness (ln): -3.36 ± 0.21
37 °C
  self-splicing fitness (ln): -2.99 ± 0.22

## UCUAAGCAAUAUUACGUCUA
30 °C
  self-splicing fitness (ln): -2.51 ± 0.33
37 °C
  self-splicing fitness (ln): -2.25 ± 0.4

## UUAAAGCAAUAUUACGCGGU
30 °C
  self-splicing fitness (ln): -3.37 ± 0.18
37 °C
  self-splicing fitness (ln): -0.344 ± 0.13

## UGGUAGCAAUAUUACGAUUU
30 °C
  self-splicing fitness (ln): -1.14 ± 0.14
37 °C
  self-splicing fitness (ln): -0.866 ± 0.14

## GGAGAGCAAUAUUACGGCCU
30 °C
  self-splicing fitness (ln): -2.34 ± 0.29
37 °C
  self-splicing fitness (ln): -1.19 ± 0.43

## CUAAAGCAAUAUUACGGUCU
30 °C
  self-splicing fitness (ln): -3.74 ± 0.21
37 °C
  self-splicing fitness (ln): -3.69 ± 0.29

## AGGGAGCAAUAUUACGAUAA
37 °C
  self-splicing fitness (ln): -2.23 ± 0.42

## CUGUAGCAAUAUUACGGAGC
37 °C
  self-splicing fitness (ln): -2.55 ± 0.49

## CAAAAGCAAUAUUACGAAGC
30 °C
  self-splicing fitness (ln): -4.63 ± 0.36
37 °C
  self-splicing fitness (ln): -2.27 ± 0.21

## UGUUAGCAAUAUUACGGGAG
30 °C
  self-splicing fitness (ln): -3.62 ± 0.25
37 °C
  self-splicing fitness (ln): -3.42 ± 0.25

## UGUCAGCAAUAUUACGGUCU
30 °C
  self-splicing fitness (ln): -0.529 ± 0.063
37 °C
  self-splicing fitness (ln): 0.201 ± 0.083

## CGGCAGCAAUAUUACGGUGG
30 °C
  self-splicing fitness (ln): -1.41 ± 0.09
37 °C
  self-splicing fitness (ln): -0.157 ± 0.082

## AGCUAGCAAUAUUACGGCGC
30 °C
  self-splicing fitness (ln): -1.1 ± 0.093
37 °C
  self-splicing fitness (ln): -0.362 ± 0.14

## ACACAGCAAUAUUACGCCUA
30 °C
  self-splicing fitness (ln): -0.959 ± 0.065
37 °C
  self-splicing fitness (ln): -0.392 ± 0.067

## GAAGAGCAAUAUUACGAAGC
30 °C
  self-splicing fitness (ln): -3.81 ± 0.46
37 °C
  self-splicing fitness (ln): -0.865 ± 0.3

## AAACAGCAAUAUUACGGUCU
30 °C
  self-splicing fitness (ln): -0.15 ± 0.059
37 °C
  self-splicing fitness (ln): -0.161 ± 0.064

## CUCUAGCAAUAUUACGUCUC
30 °C
  self-splicing fitness (ln): -3.06 ± 0.23
37 °C
  self-splicing fitness (ln): -1.81 ± 0.29

## AGAUAGCAAUAUUACGUCGU
30 °C
  self-splicing fitness (ln): -1.21 ± 0.082
37 °C
  self-splicing fitness (ln): -0.136 ± 0.099

## CAGAAGCAAUAUUACGUGGC
30 °C
  self-splicing fitness (ln): -3.7 ± 0.16
37 °C
  self-splicing fitness (ln): -2.15 ± 0.15

## GGUCAGCAAUAUUACGUCAG
30 °C
  self-splicing fitness (ln): -3.99 ± 0.4
37 °C
  self-splicing fitness (ln): -3.23 ± 0.47

## CACUAGCAAUAUUACGGAAA
30 °C
  self-splicing fitness (ln): -1.99 ± 0.42
37 °C
  self-splicing fitness (ln): -1.42 ± 0.5

## CAUUAGCAAUAUUACGGCAU
30 °C
  self-splicing fitness (ln): -2.99 ± 0.21
37 °C
  self-splicing fitness (ln): -1.66 ± 0.17

## AAGGAGCAAUAUUACGGGGU
30 °C
  self-splicing fitness (ln): -3.61 ± 0.18
37 °C
  self-splicing fitness (ln): -2.31 ± 0.15

## CGAUAGCAAUAUUACGAGCG
30 °C
  self-splicing fitness (ln): -0.984 ± 0.12
37 °C
  self-splicing fitness (ln): -0.453 ± 0.13

## GACUAGCAAUAUUACGCACG
30 °C
  self-splicing fitness (ln): -0.535 ± 0.068
37 °C
  self-splicing fitness (ln): 0.219 ± 0.085

## UCCCAGCAAUAUUACGGUCA
30 °C
  self-splicing fitness (ln): -0.0309 ± 0.062
37 °C
  self-splicing fitness (ln): 0.226 ± 0.072

## UAGCAGCAAUAUUACGCGCC
30 °C
  self-splicing fitness (ln): -1.77 ± 0.12
37 °C
  self-splicing fitness (ln): -1.16 ± 0.19

## CCACAGCAAUAUUACGUAUC
30 °C
  self-splicing fitness (ln): -2.59 ± 0.16
37 °C
  self-splicing fitness (ln): -2 ± 0.22
